The text below walks through data of patent US20080050387A1, “Non-Androgen Dependent Roles for Androgen Receptor and Non-Androgen Related Inhibitors of Androgen Receptor” (priority 2003, published 2008).

This assay addresses T1, ARN (Homo sapiens, UniProt P10275).
T1 construct: The AR has a large N-terminus (ARN); expressed in transfected cells; host or cells: H1299
T1 sequence (P10275 1-559 limits assumed): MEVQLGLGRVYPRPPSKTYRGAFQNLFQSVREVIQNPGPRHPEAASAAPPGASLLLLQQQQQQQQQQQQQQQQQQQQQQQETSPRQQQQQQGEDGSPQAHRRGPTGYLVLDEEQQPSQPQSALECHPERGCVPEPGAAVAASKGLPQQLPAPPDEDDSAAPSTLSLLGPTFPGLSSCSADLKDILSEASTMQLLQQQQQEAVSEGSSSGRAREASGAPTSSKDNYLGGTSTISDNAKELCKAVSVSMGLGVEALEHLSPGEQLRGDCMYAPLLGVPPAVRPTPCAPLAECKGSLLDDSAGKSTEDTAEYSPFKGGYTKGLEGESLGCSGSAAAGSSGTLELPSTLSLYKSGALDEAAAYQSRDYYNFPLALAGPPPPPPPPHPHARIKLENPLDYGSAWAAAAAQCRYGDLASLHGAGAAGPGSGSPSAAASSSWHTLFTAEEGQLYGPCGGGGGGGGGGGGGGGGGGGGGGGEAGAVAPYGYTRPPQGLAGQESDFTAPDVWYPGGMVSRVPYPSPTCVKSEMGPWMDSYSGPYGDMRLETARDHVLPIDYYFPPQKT
T1 sequence (Q92624 1-585 partner): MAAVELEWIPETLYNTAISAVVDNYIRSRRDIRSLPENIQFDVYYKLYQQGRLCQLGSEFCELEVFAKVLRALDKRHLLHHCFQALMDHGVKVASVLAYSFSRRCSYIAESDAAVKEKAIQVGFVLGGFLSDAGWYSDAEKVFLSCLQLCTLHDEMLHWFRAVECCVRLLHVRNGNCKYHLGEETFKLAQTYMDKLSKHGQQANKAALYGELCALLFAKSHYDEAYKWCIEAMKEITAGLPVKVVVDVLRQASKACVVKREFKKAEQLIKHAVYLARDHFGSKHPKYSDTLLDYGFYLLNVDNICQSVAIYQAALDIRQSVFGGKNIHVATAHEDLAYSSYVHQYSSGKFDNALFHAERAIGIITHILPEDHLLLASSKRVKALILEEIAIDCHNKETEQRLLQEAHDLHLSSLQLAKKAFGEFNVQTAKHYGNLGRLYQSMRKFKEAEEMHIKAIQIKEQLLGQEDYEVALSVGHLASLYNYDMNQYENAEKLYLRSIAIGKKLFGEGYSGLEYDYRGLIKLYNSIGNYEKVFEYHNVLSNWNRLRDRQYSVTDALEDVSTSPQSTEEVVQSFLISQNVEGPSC
The experiment in a line: Mammalian two-hybrid assay ARA67 / ARN in H1299 cells. As to conditions: pM-ARA67 and pVP16-ARN, pG5-Luc. It is filed as cell-based. The protocol: H1299 and COS-1 cells were maintained in Dulbecco's modified Eagle's medium (DMEM) (Life Technologies, Inc.) supplemented with 10% heat inactivated fetal bovine serum (FBS). LNCap cells were maintained in RPMI 1640 supplemented with […]. All media contain 100 units penicillin, 100 μg/ml streptomycin and 2 mM L-glutamine. Cells were seeded to a density of 50-60% confluency for transfection. In transfections where H1299 and COS-1 cells were used, the calcium phosphate precipitation method was used as described (Pan H J, et al. 1999. Endocrine 11:321-327) unless otherwise noted. […] In other reporter gene assays, where ligand treatment was required, cell culture media were changed to DMEM containing 10% charcoal-dextran-stripped FBS (CD-FBS) 2 h before transfection. After 16-18 h transfection, cells were treated with medium containing either vehicle or ligands for another 20-24 h and then cells were harvested. With LNCap cells transfection, the cells were treated with fresh RPMI 1640 containing 10% CD-FBS before transfection with SuperFect performed according to the manufacturer's protocol (Qiagen). After transfection, cells were allowed to recover in fresh RPMI 1640 containing 10% CD-FBS for 8-12 h, and then treated with either vehicle or ligands for another 20-24 h before harvesting. Each experiment was repeated at least three times.

B1: ARA67: AR N-terminal interacting protein of 585 amino acids (SEQ ID NO:1), matches PAT1; functions as a repressor of AR (protein)
chain: MAAVELEWIPETLYNTAISAVVDNYIRSRRDIRSLPENIQFDVYYKLYQQGRLCQLGSEFCELEVFAKVLRALDKRHLLHHCFQALMDHGVKVASVLAYSFSRRCSYIAESDAAVKEKAIQVGFVLGGFLSDAGWYSDAEKVFLSCLQLCTLHDEMLHWFRAVECCVRLLHVRNGNCKYHLGEETFKLAQTYMDKLSKHGQQANKAALYGELCALLFAKSHYDEAYKWCIEAMKEITAGLPVKVVVDVLRQASKACVVKREFKKAEQLIKHAVYLARDHFGSKHPKYSDTLLDYGFYLLNVDNICQSVAIYQAALDIRQSVFGGKNIHVATAHEDLAYSSYVHQYSSGKFDNALFHAERAIGIITHILPEDHLLLASSKRVKALILEEIAIDCHNKETEQRLLQEAHDLHLSSLQLAKKAFGEFNVQTAKHYGNLGRLYQSMRKFKEAEEMHIKAIQIKEQLLGQEDYEVALSVGHLASLYNYDMNQYENAEKLYLRSIAIGKKLFGEGYSGLEYDYRGLIKLYNSIGNYEKVFEYHNVLSNWNRLRDRQYSVTDALEDVSTSPQSTEEVVQSFLISQNVEGPSC
B1: the “reporter luciferase activity (association with ARN)” value is given as “highly induced”.
